According to US20130040882A1, “USE OF FIBROBLAST GROWTH FACTOR FRAGMENTS” (NOVARTIS AG, priority 2003, published 2013):
Several values for one entry are separate records, joined by “and”; a condition that tells them apart may be missing. Equal entries are not always repeated. Where two headings read alike, the source gives them in different places.

System: transcript levels in organs
Format: in vivo, cynomolgus monkey

B1: FGF23CTP: unique 75-mer COOH-terminal peptide of FGF-23, SEQ ID NO: 2 (peptide, listed as Homo sapiens)
chain: HTRSAEDDSERDPLNVLKPRARMTPAPASCSQELPSAEDNSPMASDPLGVVRGGRVNTHAGGTGPEGCRPFAKFI
AV node
  Gene expression level after 2 weeks, mean: EGF-response factor 1: 1,819.7
  Gene expression level after 2 weeks, mean: Endothelial differentiation receptor 6: 306.9
  Gene expression level after 2 weeks, mean: FLT receptor tyrosine kinase 1: 120.1
  Gene expression level after 2 weeks, mean: Insulin-like growth factor II: 565.275
  Gene expression level after 2 weeks, mean: Insulin-like growth factor binding protein 2: 880.75
  Gene expression level after 2 weeks, mean: Vascular endothelial growth factor-A (VEGFA): 363.7
Adrenal
  Gene expression level after 2 weeks, mean: Activin A receptor type II: 58.5
  Gene expression level after 2 weeks, mean: Bone morphogenetic protein 1: 210.6
  Gene expression level after 2 weeks, mean: Bone morphogenetic protein receptor, type II: 101.25
  Gene expression level after 2 weeks, mean: Cdk-inhibitor 1A p21 (Cip1): 51.75
  Gene expression level after 2 weeks, mean: E2F-5: 39.6
  Gene expression level after 2 weeks, mean: FGF receptor-1: 624.2
  Gene expression level after 2 weeks, mean: FLK1 receptor tyrosine kinase: 42.7
  Gene expression level after 2 weeks, mean: VE-cadherin: 110.2
B marrow
  Gene expression level after 2 weeks, mean: Colony-stimulating factor-1: 981.3
  Gene expression level after 2 weeks, mean: Insulin-like growth factor II: 209.5
Bone Marrow
  Gene expression level after 2 weeks, mean: Angiopoietin-1: 123.2
  Gene expression level after 2 weeks, mean: Cyclin E2: 257
  Gene expression level after 2 weeks, mean: E2F dimerization partner 2 (DP2): 1222
  Gene expression level after 2 weeks, mean: Endothelial differentiation receptor 4: 494.8
  Gene expression level after 2 weeks, mean: Mdm2: 20
  Gene expression level after 2 weeks, mean: TEK tyrosine kinase, angiopoietin receptor: 52.7
Duodenum
  Gene expression level after 2 weeks, mean: Bone morphogenetic protein 2A: 55.3
  Gene expression level after 2 weeks, mean: Cdk-inhibitor p57KIP2 (KIP2): 138.6
  Gene expression level after 2 weeks, mean: Cyclin I: 900.6
  Gene expression level after 2 weeks, mean: FLT receptor tyrosine kinase 1: 70.7
  Gene expression level after 2 weeks, mean: Farnesol receptor HRR-1: 53.1
Hippocampus
  Gene expression level after 2 weeks, mean: Cyclin-dependent kinase 5: 118.7
  Gene expression level after 2 weeks, mean: E2F-4: 153.4
  Gene expression level after 2 weeks, mean: Neuregulin 1: 86.075
Muscle
  Gene expression level after 2 weeks, mean: Cyclin D3: 149.2
  Gene expression level after 2 weeks, mean: E2F-4: 643.8
  Gene expression level after 2 weeks, mean: Endothelial differentiation receptor 6: 181.9
  Gene expression level after 2 weeks, mean: Insulin-like growth factor I: 107.65
  Gene expression level after 2 weeks, mean: Placental growth factor: 91.4
  Gene expression level after 2 weeks, mean: Retinoid X receptor-gamma: 580.9
  Gene expression level after 2 weeks, mean: Transforming growth factor β2: 58.3
  Gene expression level after 2 weeks, mean: p53 binding protein: 138.7
ROHY
  Gene expression level after 2 weeks, mean: Activin A receptor type II: 54.9
  Gene expression level after 2 weeks, mean: Angiopoietin-1: 162.5
  Gene expression level after 2 weeks, mean: Brain-specific angiogenesis inhibitor 1 (MAS5): 225.1
  Gene expression level after 2 weeks, mean: Cdk-inhibitor p19: 267.8
  Gene expression level after 2 weeks, mean: Colony-stimulating factor-1: 802.5
  Gene expression level after 2 weeks, mean: Cyclin A/CDK2-associated p19 (Skp1): 1069.6
  Gene expression level after 2 weeks, mean: Cyclin D2: 197.1
  Gene expression level after 2 weeks, mean: Cyclin-dependent kinase 4: 197.6
  Gene expression level after 2 weeks, mean: E2F-4: 245.9
  Gene expression level after 2 weeks, mean: EPHB2v protein-tyrosine kinase: 119.1
  Gene expression level after 2 weeks, mean: Epidermal growth factor receptor: 103.1
  Gene expression level after 2 weeks, mean: FGF receptor-1: 932.4
  Gene expression level after 2 weeks, mean: Growth differentiation factor 1: 1,410.2
  Gene expression level after 2 weeks, mean: RalGDS/AF-6 (inhibitor of Cyclin D1): 300.5
  Gene expression level after 2 weeks, mean: Retinoblastoma 1: 467.9
  Gene expression level after 2 weeks, mean: Retinoblastoma binding protein 4: 164
  Gene expression level after 2 weeks, mean: Retinoid X receptor-beta: 106.925
  Gene expression level after 2 weeks, mean: S-phase response (cyclin-related): 176
  Gene expression level after 2 weeks, mean: Transforming growth factor β3: 88.4
  Gene expression level after 2 weeks, mean: Tumour necrosis factor receptor-2: 126.4
  Gene expression level after 2 weeks, mean: VEGFB: 626.2
  Gene expression level after 2 weeks, mean: Vascular endothelial growth factor-A (VEGFA): 326.175
  Gene expression level after 2 weeks, mean: p53 binding protein: 154.7
Re atrium
  Gene expression level after 2 weeks, mean: S-phase response (cyclin-related): 159.1
Retina
  Gene expression level after 2 weeks, mean: Activin A receptor type II: 34.1
  Gene expression level after 2 weeks, mean: Brain-specific angiogenesis inhibitor 2: 153.2
  Gene expression level after 2 weeks, mean: Cyclin D2: 132
  Gene expression level after 2 weeks, mean: Insulin-like growth factor binding protein 2: 807.9
Thymus
  Gene expression level after 2 weeks, mean: Cdk-inhibitor p57KIP2 (KIP2): 247.9
  Gene expression level after 2 weeks, mean: FGF receptor-1: 153.2
Cynomolgus monkey, in vivo
  Gene expression level after 2 weeks, mean: TNFR-related death receptor-3: 82.4
  Gene expression level after 2 weeks, mean: TNFR-related death receptor-6: 144.65 and 98.8
kidney
  Gene expression level after 2 weeks, mean: Bone morphogenetic protein 10: 138.6
  Gene expression level after 2 weeks, mean: Colony-stimulating factor-1: 659.75
  Gene expression level after 2 weeks, mean: E2F-1: 198.5
  Gene expression level after 2 weeks, mean: E2F-4: 741.6
  Gene expression level after 2 weeks, mean: Neuregulin 1: 150.725
liver
  Gene expression level after 2 weeks, mean: Bone morphogenetic protein 10: 134.1
  Gene expression level after 2 weeks, mean: EPHB2v protein-tyrosine kinase: 82.6
  Gene expression level after 2 weeks, mean: Endothelial differentiation receptor 4: 391.7
  Gene expression level after 2 weeks, mean: Farnesol receptor HRR-1: 383.3
  Gene expression level after 2 weeks, mean: Insulin-like growth factor I: 1,055.4
  Gene expression level after 2 weeks, mean: Insulin-like growth factor II: 606.9
  Gene expression level after 2 weeks, mean: Insulin-like growth factor binding protein 1: 1,517
  Gene expression level after 2 weeks, mean: Insulin-like growth factor binding protein 2: 3,858.6
Rostral hypothalamus
  Gene expression level after 2 weeks, mean: 14-3-3 protein tau: 1,748.5
  Gene expression level after 2 weeks, mean: Amyloid beta precursor protein (cytoplasmic tail)-binding protein 2: 191.3
  Gene expression level after 2 weeks, mean: Anion exchanger: 844.5
  Gene expression level after 2 weeks, mean: Axl: 60.3
  Gene expression level after 2 weeks, mean: BAX: 134.4
  Gene expression level after 2 weeks, mean: Bcl-2-binding protein Nip3: 794.8
  Gene expression level after 2 weeks, mean: Bmi-1 homeobox gene repressor: 374.7
  Gene expression level after 2 weeks, mean: CMP-sialic acid transporter: 135.075
  Gene expression level after 2 weeks, mean: CREB binding protein: 93
  Gene expression level after 2 weeks, mean: Ca2+-ATPase: 174.4
  Gene expression level after 2 weeks, mean: Calcineurin A1: 173.975
  Gene expression level after 2 weeks, mean: Cholecystokinin A receptor: 196
  Gene expression level after 2 weeks, mean: Connexin 43: 184.5
  Gene expression level after 2 weeks, mean: Delta 2 catenin: 118
  Gene expression level after 2 weeks, mean: Erk3: 409.5
  Gene expression level after 2 weeks, mean: FYN: 958.1
  Gene expression level after 2 weeks, mean: GDP dissociation inhibitor beta: 125.8
  Gene expression level after 2 weeks, mean: Glycogen synthase kinase 3: 155.5
  Gene expression level after 2 weeks, mean: Hypoxia-inducible factor 1 alpha: 286.5
  Gene expression level after 2 weeks, mean: Inhibitor of DNA binding 4: 67.6
  Gene expression level after 2 weeks, mean: JNK2: 79.9
  Gene expression level after 2 weeks, mean: Jagged 1: 70.3
  Gene expression level after 2 weeks, mean: Janus kinase 1: 43.3
  Gene expression level after 2 weeks, mean: Mnb (Minibrain): 446
  Gene expression level after 2 weeks, mean: Myelin oligodendrocyte glycoprotein: 62.7
  Gene expression level after 2 weeks, mean: Myosin regulatory light chain: 177.2
  Gene expression level after 2 weeks, mean: NIPSNAP2 (glioblastoma co-amplified): 118.7
  Gene expression level after 2 weeks, mean: Na,K-ATPase: 1,453.2
  Gene expression level after 2 weeks, mean: Neural cell adhesion molecule 1: 988.6
  Gene expression level after 2 weeks, mean: Neurofibromin: 144
  Gene expression level after 2 weeks, mean: Oligodendrocyte myelin glycoprotein OMGP: 773.5
  Gene expression level after 2 weeks, mean: PKR Interferon-inducible: 128.25
  Gene expression level after 2 weeks, mean: Phosphodiesterase 4B: 60.6
  Gene expression level after 2 weeks, mean: Phosphoinositide 3-kinase: 241.5
  Gene expression level after 2 weeks, mean: Phosphoinositide-3-kinase, catalytic, delta polypeptide: 241.5
  Gene expression level after 2 weeks, mean: Phospholipase C: 72.1
  Gene expression level after 2 weeks, mean: Pim1: 327.5
  Gene expression level after 2 weeks, mean: Pinin, Desmosome associated protein: 119.7
  Gene expression level after 2 weeks, mean: RAB1: 143.9
  Gene expression level after 2 weeks, mean: RAB5: 809.8
  Gene expression level after 2 weeks, mean: RAB11A: 344.9
  Gene expression level after 2 weeks, mean: RAB11B: 71.2
  Gene expression level after 2 weeks, mean: RAS p21 protein activator: 163
  Gene expression level after 2 weeks, mean: RNP24: 558.2
  Gene expression level after 2 weeks, mean: Reticulon 4: 1,309.2
  Gene expression level after 2 weeks, mean: Retinoic acid receptor: 110
  Gene expression level after 2 weeks, mean: Ribosomal protein kinase B (RSK-B): 120
  Gene expression level after 2 weeks, mean: SFRS protein kinase 2: 205.8
  Gene expression level after 2 weeks, mean: SNARE: 55.4
  Gene expression level after 2 weeks, mean: STAT1: 119.3
  Gene expression level after 2 weeks, mean: Sodium/hydrogen exchanger: 785.5
  Gene expression level after 2 weeks, mean: Sphingomyelinase: 259.5
  Gene expression level after 2 weeks, mean: TYRO3: 163.1
  Gene expression level after 2 weeks, mean: TrkB: 40.8
  Gene expression level after 2 weeks, mean: Tropomyosin 2 (beta): 131.6
  Gene expression level after 2 weeks, mean: Tropomyosin 4: 140.6
  Gene expression level after 2 weeks, mean: c-abl: 119.4
  Gene expression level after 2 weeks, mean: c-raf: 327.5
  Gene expression level after 2 weeks, mean: c-yes: 64.7
Second line, organ cell empty (below ROHY)
  Gene expression level after 2 weeks, mean: RalGDS/AF-6 (inhibitor of Cyclin D1): 354.5
